Measurements as given in patent publication US20140120128A1.

How the values were obtained:
Test in all cases: cell-based or functional assay
[1] = target: T1, human TLR7 expressed on HEK293 cells (human) (UniProt Q9NYK1)
T1 sequence: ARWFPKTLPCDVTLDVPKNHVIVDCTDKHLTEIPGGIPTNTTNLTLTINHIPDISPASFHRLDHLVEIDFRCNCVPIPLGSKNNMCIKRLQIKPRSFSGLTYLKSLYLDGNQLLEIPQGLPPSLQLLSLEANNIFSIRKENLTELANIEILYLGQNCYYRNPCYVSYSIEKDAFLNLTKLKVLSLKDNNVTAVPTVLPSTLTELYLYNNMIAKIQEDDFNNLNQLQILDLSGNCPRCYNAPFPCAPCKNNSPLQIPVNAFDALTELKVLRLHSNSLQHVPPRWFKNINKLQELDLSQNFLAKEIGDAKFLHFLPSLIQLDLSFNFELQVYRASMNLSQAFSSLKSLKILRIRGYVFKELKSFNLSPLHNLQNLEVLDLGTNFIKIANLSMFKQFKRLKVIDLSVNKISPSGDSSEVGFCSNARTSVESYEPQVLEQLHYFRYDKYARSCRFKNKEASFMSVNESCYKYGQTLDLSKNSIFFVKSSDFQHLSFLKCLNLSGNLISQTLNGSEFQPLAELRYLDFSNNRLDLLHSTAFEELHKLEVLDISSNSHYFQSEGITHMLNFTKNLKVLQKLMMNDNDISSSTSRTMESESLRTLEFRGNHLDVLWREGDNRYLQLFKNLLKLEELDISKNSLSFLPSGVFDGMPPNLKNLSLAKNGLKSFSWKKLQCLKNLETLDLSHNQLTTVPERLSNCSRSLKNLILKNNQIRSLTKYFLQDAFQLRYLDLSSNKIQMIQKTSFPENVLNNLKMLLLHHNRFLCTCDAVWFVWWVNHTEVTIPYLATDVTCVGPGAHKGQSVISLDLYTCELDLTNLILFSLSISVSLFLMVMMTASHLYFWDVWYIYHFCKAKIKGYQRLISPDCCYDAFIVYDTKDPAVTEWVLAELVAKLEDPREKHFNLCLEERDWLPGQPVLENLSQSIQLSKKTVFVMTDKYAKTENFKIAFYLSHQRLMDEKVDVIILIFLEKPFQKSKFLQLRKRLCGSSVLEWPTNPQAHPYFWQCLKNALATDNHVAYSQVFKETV

[2] = target: human TLR4 (MD2-CD14) expressed on HEK293 cells (human) (UniProt O00206)
[3] = target: human TLR2 expressed on HEK293 cells (human) (UniProt O60603)
[4] = target: T2, human TLR8 expressed on HEK293 cells (human) (UniProt Q9NR97)
T2 sequence: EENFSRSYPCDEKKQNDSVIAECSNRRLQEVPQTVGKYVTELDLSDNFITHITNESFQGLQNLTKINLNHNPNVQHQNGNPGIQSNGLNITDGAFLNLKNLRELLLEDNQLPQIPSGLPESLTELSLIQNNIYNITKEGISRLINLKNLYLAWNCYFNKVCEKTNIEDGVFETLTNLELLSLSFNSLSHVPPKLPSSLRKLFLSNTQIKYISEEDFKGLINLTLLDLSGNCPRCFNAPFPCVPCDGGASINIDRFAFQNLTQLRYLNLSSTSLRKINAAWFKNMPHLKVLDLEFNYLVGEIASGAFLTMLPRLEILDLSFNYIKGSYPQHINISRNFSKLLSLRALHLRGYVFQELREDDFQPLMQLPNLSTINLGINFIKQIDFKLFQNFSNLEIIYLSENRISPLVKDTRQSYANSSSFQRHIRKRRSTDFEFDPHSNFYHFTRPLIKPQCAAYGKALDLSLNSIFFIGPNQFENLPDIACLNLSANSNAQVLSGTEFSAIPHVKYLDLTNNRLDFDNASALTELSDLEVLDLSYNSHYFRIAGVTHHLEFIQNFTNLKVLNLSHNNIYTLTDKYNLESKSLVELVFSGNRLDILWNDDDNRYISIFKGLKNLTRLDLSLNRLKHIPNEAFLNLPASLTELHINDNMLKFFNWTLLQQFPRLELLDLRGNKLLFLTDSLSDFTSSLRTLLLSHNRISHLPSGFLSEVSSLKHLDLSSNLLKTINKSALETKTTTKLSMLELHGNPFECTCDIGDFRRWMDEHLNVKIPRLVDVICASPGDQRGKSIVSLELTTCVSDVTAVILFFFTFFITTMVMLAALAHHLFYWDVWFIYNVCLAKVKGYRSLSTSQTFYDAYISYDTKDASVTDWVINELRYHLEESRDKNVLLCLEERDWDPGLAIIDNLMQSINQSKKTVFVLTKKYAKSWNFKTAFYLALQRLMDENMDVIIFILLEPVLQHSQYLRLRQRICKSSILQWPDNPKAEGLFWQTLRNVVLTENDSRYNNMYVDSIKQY

[5] = target: human TLR5 expressed on HEK293 cells (human) (UniProt O60602)
[6] = target: T3, human TLR9 expressed on HEK293 cells (human) (UniProt Q9NR96)
T3 sequence: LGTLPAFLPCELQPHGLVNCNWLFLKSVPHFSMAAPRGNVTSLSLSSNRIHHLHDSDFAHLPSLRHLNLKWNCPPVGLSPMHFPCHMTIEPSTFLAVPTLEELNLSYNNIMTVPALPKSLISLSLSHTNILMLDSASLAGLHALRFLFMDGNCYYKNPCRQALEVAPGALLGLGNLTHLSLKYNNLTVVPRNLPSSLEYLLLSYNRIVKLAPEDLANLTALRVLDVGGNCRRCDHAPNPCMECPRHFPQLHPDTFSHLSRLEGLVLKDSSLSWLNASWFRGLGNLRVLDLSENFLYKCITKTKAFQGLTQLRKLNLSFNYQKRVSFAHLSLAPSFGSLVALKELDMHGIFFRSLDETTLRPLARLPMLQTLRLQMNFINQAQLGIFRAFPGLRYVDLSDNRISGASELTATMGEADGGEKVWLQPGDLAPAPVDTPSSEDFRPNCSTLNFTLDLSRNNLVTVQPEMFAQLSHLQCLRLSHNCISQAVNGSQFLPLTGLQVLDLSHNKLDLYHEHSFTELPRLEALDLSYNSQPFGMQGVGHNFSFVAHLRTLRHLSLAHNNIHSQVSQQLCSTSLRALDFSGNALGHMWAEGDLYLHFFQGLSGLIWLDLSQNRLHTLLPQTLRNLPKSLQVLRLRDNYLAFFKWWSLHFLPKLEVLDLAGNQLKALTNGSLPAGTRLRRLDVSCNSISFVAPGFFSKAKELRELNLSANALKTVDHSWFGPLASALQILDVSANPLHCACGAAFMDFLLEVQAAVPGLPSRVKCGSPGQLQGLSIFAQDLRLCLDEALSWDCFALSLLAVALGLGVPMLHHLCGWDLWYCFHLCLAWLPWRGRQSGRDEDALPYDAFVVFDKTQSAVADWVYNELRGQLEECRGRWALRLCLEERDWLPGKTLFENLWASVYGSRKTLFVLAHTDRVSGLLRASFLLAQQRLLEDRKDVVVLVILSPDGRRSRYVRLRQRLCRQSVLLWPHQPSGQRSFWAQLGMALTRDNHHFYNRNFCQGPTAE

[7] = target: human TLR3 expressed on HEK293 cells (human) (UniProt O15455)

Chain of human TLR4 (MD2-CD14) expressed on HEK293 cells (human) (O00206 24-839 limits assumed, chain 1 of 3): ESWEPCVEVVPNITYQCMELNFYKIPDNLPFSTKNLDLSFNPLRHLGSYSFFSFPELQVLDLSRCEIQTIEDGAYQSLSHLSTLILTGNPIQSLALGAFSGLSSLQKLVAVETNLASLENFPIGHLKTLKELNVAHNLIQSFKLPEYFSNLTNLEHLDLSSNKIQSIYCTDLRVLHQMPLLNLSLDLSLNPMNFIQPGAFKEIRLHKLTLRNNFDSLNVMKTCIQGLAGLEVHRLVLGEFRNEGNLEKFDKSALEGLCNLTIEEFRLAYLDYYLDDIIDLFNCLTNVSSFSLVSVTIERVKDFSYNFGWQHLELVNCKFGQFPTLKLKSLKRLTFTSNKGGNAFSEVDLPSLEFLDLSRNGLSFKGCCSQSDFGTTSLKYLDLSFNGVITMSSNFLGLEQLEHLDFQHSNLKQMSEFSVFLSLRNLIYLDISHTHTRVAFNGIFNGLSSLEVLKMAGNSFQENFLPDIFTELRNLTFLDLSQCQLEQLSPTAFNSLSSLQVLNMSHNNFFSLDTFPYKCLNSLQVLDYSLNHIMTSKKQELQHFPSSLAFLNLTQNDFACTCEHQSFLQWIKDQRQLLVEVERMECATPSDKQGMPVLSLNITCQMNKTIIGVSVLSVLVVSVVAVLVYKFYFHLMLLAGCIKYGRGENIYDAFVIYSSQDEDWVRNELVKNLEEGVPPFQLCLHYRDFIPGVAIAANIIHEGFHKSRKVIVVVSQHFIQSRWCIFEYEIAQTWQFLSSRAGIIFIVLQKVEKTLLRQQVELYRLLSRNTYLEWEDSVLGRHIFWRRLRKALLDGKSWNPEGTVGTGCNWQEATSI
Chain of human TLR4 (MD2-CD14) expressed on HEK293 cells (human) (Q9Y6Y9 19-160 limits assumed, chain 2 of 3, further chain): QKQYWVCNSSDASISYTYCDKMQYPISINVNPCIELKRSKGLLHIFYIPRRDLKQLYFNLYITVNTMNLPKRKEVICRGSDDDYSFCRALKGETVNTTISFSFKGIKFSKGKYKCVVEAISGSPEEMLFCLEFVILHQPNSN
Chain of human TLR4 (MD2-CD14) expressed on HEK293 cells (human) (P08571 20-345 limits assumed, chain 3 of 3, further chain): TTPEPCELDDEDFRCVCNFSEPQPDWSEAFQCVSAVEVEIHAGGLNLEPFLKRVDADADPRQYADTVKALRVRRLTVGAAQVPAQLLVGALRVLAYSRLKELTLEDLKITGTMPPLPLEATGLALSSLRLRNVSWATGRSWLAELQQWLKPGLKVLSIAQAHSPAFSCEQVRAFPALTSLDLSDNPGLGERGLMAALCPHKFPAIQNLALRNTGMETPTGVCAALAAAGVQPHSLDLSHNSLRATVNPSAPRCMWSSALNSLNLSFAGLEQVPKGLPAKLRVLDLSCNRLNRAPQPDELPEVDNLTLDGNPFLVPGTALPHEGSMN
Chain of human TLR2 expressed on HEK293 cells (human) (O60603 21-784): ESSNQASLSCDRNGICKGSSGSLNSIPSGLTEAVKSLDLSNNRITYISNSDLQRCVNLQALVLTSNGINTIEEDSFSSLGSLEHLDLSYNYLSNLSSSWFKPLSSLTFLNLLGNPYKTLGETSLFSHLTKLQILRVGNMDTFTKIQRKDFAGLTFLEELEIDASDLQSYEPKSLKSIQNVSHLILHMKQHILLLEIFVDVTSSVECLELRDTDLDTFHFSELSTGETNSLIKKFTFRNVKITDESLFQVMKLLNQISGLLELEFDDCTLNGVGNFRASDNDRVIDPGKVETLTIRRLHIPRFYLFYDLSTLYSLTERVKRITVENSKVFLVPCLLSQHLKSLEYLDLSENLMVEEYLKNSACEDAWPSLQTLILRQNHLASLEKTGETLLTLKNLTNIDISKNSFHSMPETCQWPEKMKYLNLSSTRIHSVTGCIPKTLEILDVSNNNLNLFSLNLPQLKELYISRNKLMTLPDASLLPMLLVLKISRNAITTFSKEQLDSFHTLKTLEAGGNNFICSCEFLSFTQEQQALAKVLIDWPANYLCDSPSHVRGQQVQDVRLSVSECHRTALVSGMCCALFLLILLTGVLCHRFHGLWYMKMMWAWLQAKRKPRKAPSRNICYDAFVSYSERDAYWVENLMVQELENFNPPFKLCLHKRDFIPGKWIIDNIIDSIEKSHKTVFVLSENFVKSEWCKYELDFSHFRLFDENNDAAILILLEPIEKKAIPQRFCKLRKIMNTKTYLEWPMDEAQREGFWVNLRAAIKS
Chain of human TLR5 expressed on HEK293 cells (human) (O60602 21-858): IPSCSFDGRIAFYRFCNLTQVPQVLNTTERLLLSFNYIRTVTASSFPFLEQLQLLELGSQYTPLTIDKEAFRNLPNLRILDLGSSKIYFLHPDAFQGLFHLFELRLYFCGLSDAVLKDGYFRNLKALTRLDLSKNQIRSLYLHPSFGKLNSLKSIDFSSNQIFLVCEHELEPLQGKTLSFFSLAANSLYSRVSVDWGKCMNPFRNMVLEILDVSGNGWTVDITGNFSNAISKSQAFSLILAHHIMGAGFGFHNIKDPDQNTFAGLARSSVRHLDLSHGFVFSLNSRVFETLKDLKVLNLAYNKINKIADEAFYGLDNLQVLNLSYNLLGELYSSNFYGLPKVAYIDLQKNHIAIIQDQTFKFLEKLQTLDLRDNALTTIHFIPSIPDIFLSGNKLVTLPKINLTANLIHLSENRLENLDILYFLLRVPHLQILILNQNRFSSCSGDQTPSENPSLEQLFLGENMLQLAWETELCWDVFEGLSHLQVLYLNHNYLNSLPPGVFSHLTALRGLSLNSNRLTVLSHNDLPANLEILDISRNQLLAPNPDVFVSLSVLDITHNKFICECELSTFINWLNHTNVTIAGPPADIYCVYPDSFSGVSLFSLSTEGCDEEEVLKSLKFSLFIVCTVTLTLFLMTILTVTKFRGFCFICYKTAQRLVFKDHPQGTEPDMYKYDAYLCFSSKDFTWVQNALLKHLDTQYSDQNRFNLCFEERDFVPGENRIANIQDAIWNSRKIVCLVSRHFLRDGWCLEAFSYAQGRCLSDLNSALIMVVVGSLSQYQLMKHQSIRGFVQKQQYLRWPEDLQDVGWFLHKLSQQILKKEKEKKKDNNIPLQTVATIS

B1: truncated YscF (protein)
chain: LKKPADDANKAVNDSIAALKDKPDNPALLADLQHSINKWSVIYNINSTIVRSMKDLMQGILQKFP
- SEAP reporter expression in HEK293 cells, screening 1 [1]: 0.091
- SEAP reporter expression in HEK293 cells, screening 2 [1]: 0.097
- SEAP reporter expression in HEK293 cells, screening 1 [2]: 2
- SEAP reporter expression in HEK293 cells, screening 2 [2]: 1.9
- SEAP reporter expression in HEK293 cells, screening 1 [3]: 2.02
- SEAP reporter expression in HEK293 cells, screening 2 [3]: 1.98
- SEAP reporter expression in HEK293 cells, screening 1 [4]: 0.099
- SEAP reporter expression in HEK293 cells, screening 2 [4]: 0.105
- SEAP reporter expression in HEK293 cells, screening 1 [5]: 0.15
- SEAP reporter expression in HEK293 cells, screening 2 [5]: 0.154
- SEAP reporter expression in HEK293 cells, screening 1 [6]: 0.079
- SEAP reporter expression in HEK293 cells, screening 2 [6]: 0.079
- SEAP reporter expression in HEK293 cells, screening 1 [7]: 0.097
- SEAP reporter expression in HEK293 cells, screening 2 [7]: 0.101
